For this data set, the system named is Matrin 3 (endogenous, HCT116 nuclear extract) (Homo sapiens (HCT116)). The experiment in a line: pull-down + mass spectrometry. The following applies: rMatrin 3 pulldown: 25 mM Tris-HCl pH 7.5, 150 mM KCl, 0.1% Triton X-100, 100 ug/ml BSA, 2 mM DTT, 5% glycerol, room temperature, 2 hr.

For Bi-PINCR (full-length PINCR transcript), the binding signal (fold over Bi-LUC) reads like this: (DOXO-treated nuclear extract) 16; (untreated nuclear extract) 8.

Values taken from PMC5470874.
